Source: US20240093191A1, “COMPOSITIONS AND METHODS FOR TREATING DISEASE ASSOCIATED WITH DUX4 OVEREXPRESSION” (RESEARCH INSTITUTE AT NATIONWIDE CHILDREN'S HOSPITAL, priority 2021, published 2024)
Where “and” joins values, the source holds several entries; their conditions need not be identical. Equal entries are not always repeated.

Experiments:
Format in all cases: cell-based, human
DUX4 protein = test: Western blot of V5-tagged DUX4 protein in co-transfected HEK293 cells; details: HEK293; for Average inhibition efficiency (%) of DUX4 protein levels: CMV.DUX4-FL/CMV.eGFP, molar ratio 1 to 3, eGFP normalizer, relative to U6-milacZ, N = 3-8
Method: Western Blots. […] 50 mM Tris (pH 7.5-8.0), 150 mM NaCl, 0.1% (v/v) SDS, 0.5% (v/v) deoxycholate, 1% (v/v) triton X-100 (Fisher Scientific) and 1 tablet of protease inhibitor (ThermoFisher Scientific) per 10 mL of buffer. The total protein extract was quantified using the DC Protein Assay (Bio-Rad). Twenty microgram samples were separated on 12% SDS-PAGE, transferred to nitrocellulose membrane, using the wet transfer system, and incubated with the following antibodies: mouse monoclonal antibody to V5 (horseradish peroxidase [HRP]-coupled) [1:5,000 in 5% milk TBST buffer (150 mM NaCl, 50 mM Tris-HCl pH 7.4 and 0.1% Tween 20 (Fisher Scientific)), R961-25; Invitrogen); rabbit polyclonal eGFP antibody (1:50,000 in 3% BSA PBS, ab290; Abcam); mouse monoclonal β-actin antibodies (1:60,000; Sigma, St Louis, MO); overnight at 4° C. When using the eGFP antibody, membranes were blocked 30 mins with 3% BSA PBS prior to blotting. eGFP-probed blots were washed five times, 5 min each with 0.5% Tween 20 (Fisher Scientific) in TBST buffer, and then incubated with HRP-coupled goat anti-rabbit secondary antibody (1:250,000 in 3% BSA PBS, 115-035-144; Jackson ImmunoResearch) for 2 hours at room temperature. V5-probed blots were washed five times, 5 min each with 0.1% Tween 20 in TBST buffer. Following washes, blots were developed using Immobilon Western HRP substrate (Millipore) and exposed to film. DUX4.V5, and eGFP quantification was assessed using ImageJ.

[1] = system: DUX4 ORF (RenLuc-DUX4 ORF); test: Dual-luciferase assay, RenLuc-DUX4 ORF reporter co-transfected with miDUX4 plasmids in HEK293 cells
Method: Dual Luciferase Assay. (See also FIGS. 1A, 3A-B, 4A-B, 5B, and 16B-C.) This assay was performed as previously described by Wallace et al. (Mol. Ther. Methods Clin. Dev. 8: 121-30 (2018)) and following the dual-luciferase reporter assay system (Promega) protocol with some modifications. All plasmid constructs had the psiCheck2 dual luciferase reporter plasmid (Promega) as backbone that contains separate Renilla and Firefly luciferase genes, where the former contains the various target sequences used in the experiments of the disclosure, and the latter serves as a transfection normalizer (control). All DUX4 and control sequences were cloned downstream of the Renilla luciferase stop codon, serving as a 3′UTR. HEK293 cells were pre-plated 24h before transfection. Cells were then co-transfected with the luciferase DUX4 reporter and individual microRNA expression plasmids in an increasing luciferase DUX4 reporter:miRNA molar ratio using Lipofectamine 2000 (Invitrogen). Luciferase activity was measured 24h or 48h after transfection. DUX4 gene silencing was determined as previously described [Wallace et al., Mol. Ther. Methods Clin. Dev. 8: 121-30 (2018)]. Triplicate data were averaged per experiment, and individual experiments were performed 3 times. Results were reported as the average ratio of Renilla to Firefly luciferase activity±SEM for all combined experiments.
Accordingly, two new mi405 constructs, i.e., mi405F and mi405NF, were designed. […] To assess the inhibition efficiency of the three mi405 constructs, a dual-luciferase assay and western blot analysis, similar to what was described for mir-675, were carried out. In the dual-luciferase assay, U6.mi405, U6.mi405F, or U6.mi405NF was co-transfected into HEK293 cells along with the RenLuc-DUX4 ORF (a construct expressing the open reading frame of DUX4 as a 3′UTR sequence of Renilla Luciferase). 24 h after transfection, U6.mi405, U6.mi405F, and U6.mi405NF reduced the relative Renilla luciferase activity by 85±1%, 89±1%, and 66±1% (P<0.0001, ANOVA, N=3), respectively, when tested against the RenLuc-DUX4 ORF construct.

mir-675-5p = test: Small-transcript northern blot of mir-675 processing in HEK293 cells; details: HEK293; anti-mir-675-5p biotinylated probe
Excerpt: Small-Transcript Northern Blots. […] (SEQ ID NO: 148)).

B1: U6-mir-675-2.6: mir-675 construct with modified 5' and 3' flanking sequences (nucleic acid)
DNA: TCTAGAGATCCGACGCCGCCATCTCTAGGCCCGCGCCGGCCCCCTCGCACAGACTTGTGGGAGAAGCTCGGCTACTCCCCTGCCCCGGTTAATTTGCATATAATATTTCCTAGTAACTATAGAGGCTTAATGTGCGATAAAAGACAGATAATCTGTTCTTTTTAATACTAGCTACATTTTACATGATAGGCTTGGATTTCTATAAGAGATACAAATACTAAATTATTATTTTAAAAAACAGCACAAAAGGAAACTCACCCTAACTGTAAAGTAATTGTGTGTTTTGAGACTATAAATATCCCTTGGAGAAAAGCCTTGTTAACGCGCCCCAGGGTCTGGTGCGGAGAGGGCCCACAGTGGACTTGGTGACGCTGTATGCCCTCACCGCTCAGCCCCTGGGGTAACTCCTAATCACACTTTTTT
DUX4 protein
  Average inhibition efficiency (%) of DUX4 protein levels: 63 ± 2 (N = 5) %

B2: U6-mir-675-2.4: mir-675 construct with flanks as U6.mir-675-2.3, different promoter (nucleic acid)
DNA: GAACGCTGACGTCATCAACCCGCTCCAAGGAATCGCGGGCCCAGTGTCACTAGGCGGGAACACCCAGCGCGCGTGCGCCCTGGCAGGAAGATGGCTGTGAGGGACAGGGGAGTGGCGCCCTGCAATATTTGCATGTCGCTATGTGTTCTGGGAAATCACCATAAACGTGAAATGTCTTTGGATTTGGGAATCTTATAAGTTCTGTATGAGACCACTTGGATCCAATCACACTGCCCCAGGGTCTGGTGCGGAGAGGGCCCACAGTGGACTTGGTGACGCTGTATGCCCTCACCGCTCAGCCCCTGGGGATACTCCTAATCACACTTTTTT
DUX4 protein
  Average inhibition efficiency (%) of DUX4 protein levels: 63 ± 7 (N = 5) %

B3: U6-milacZ: negative control miRNA expression plasmid (nucleic acid)
DNA: ACGCCGCCATCTCTAGGCCCGCGCCGGCCCCCTCGCACAGACTTGTGGGAGAAGCTCGGCTACTCCCCTGCCCCGGTTAATTTGCATATAATATTTCCTAGTAACTATAGAGGCTTAATGTGCGATAAAAGACAGATAATCTGTTCTTTTTAATACTAGCTACATTTTACATGATAGGCTTGGATTTCTATAAGAGATACAAATACTAAATTATTATTTTAAAAAACAGCACAAAAGGAAACTCACCCTAACTGTAAAGTAATTGTGTGTTTTGAGACTATAAATATCCCTTGGAGAAAAGCCTTGTTTGCGTTTAGTGAACCGTCAGATGGTACCGTTTAAACTCGAGTGAGCGACATGTTGCCACTCGCTTTAATCTGTAAAGCCACAGATGGGATTAAAGCGAGTGGCAACATGGCGCCTACTAGAGCGGCCGCCACAGCGGGGAGATCCAGACATGATAAGATACATTTTTT
DUX4 protein
  Average inhibition efficiency (%) of DUX4 protein levels: 0 ± 2 (N = 8) %

B4: U6.mi405NF: mi405 with one G at 5' end and no 3' flanking sequence (nucleic acid)
DNA: ACGCCGCCATCTCTAGGCCCGCGCCGGCCCCCTCGCACAGACTTGTGGGAGAAGCTCGGCTACTCCCCTGCCCCGGTTAATTTGCATATAATATTTCCTAGTAACTATAGAGGCTTAATGTGCGATAAAAGACAGATAATCTGTTCTTTTTAATACTAGCTACATTTTACATGATAGGCTTGGATTTCTATAAGAGATACAAATACTAAATTATTATTTTAAAAAACAGCACAAAAGGAAACTCACCCTAACTGTAAAGTAATTGTGTGTTTTGAGACTATAAATATCCCTTGGAGAAAAGCCTTGTTTGCTCGAGTGAGCGATCCAGGATTCAGATCTGGTTTCTGTAAAGCCACAGATGGGAAACCAGATCTGAATCCTGGACTGCCTACTAGATTTTTT
DUX4 protein; 1:4 DUX4:mi405 molar ratio, 24 h, normalized to miGFP, N=2
  reduction of DUX4 protein levels: 70±13%
[1]; 1:4 DUX4:mi405 molar ratio, HEK293, 24 h, normalized to miGFP
  reduction of relative Renilla luciferase activity: 66±1%
[1]; DUX4:mi405 molar ratio 2 to 1, HEK293, 24 h, normalized to U6.miGFP
  reduction of Renilla luciferase activity: 4±2% and 3.6±1.8%
[1]; DUX4:miDUX4 molar ratio 1:1
  relative Renilla luciferase activity reached: 88±3%
[1]; switching from molar ratio 1:2 to 1:1 DUX4:miDUX4
  increase in relative Renilla luciferase activity: 73±7%

B5: U6.mir-675-2.2: mir-675 construct with flanks as U6.mir-675-2.1, different promoter (nucleic acid)
DNA: GAACGCTGACGTCATCAACCCGCTCCAAGGAATCGCGGGCCCAGTGTCACTAGGCGGGAACACCCAGCGCGCGTGCGCCCTGGCAGGAAGATGGCTGTGAGGGACAGGGGAGTGGCGCCCTGCAATATTTGCATGTCGCTATGTGTTCTGGGAAATCACCATAAACGTGAAATGTCTTTGGATTTGGGAATCTTATAAGTTCTGTATGAGACCACTTGGATCCCCCAGGGTCTGGTGCGGAGAGGGCCCACAGTGGACTTGGTGACGCTGTATGCCCTCACCGCTCAGCCCCTGGGGTAACTCCTAATCACACTTTTTT
DUX4 protein
  Average inhibition efficiency (%) of DUX4 protein levels: 58 ± 6 (N = 5) %
mir-675-5p
  mature mir-675-5p bands on northern blot: detectable mir-675 mature sequences
